Data: the DeepSol protein solubility set

Assay: soluble on expression in E. coli; label from the status in PepcDB or PDB records
With “IPGPGFTAGAQGSCSLRCGAQDGLCSCHPTCSGLGTCCEDFLDYCLEILPSSGSMMGGKDFVVQHLKWTDP” the “soluble on expression in E. coli” value was “soluble”.
With “PATDIMFPHSSMELVEGIYKHNQVADYFNKVLADTLLAYLDERLKHDPEASIRIMEIGAGTGGTSAGIFEKLKPYQKHINEYCYTDLSKAFLLHAEKEYGAENPYLTYQLFDVEKPIDQQEFEAGGYDVVIAANVLHATKNIRQTLRHTKAVMKNNGMLLLNEMAGNSLFPHITFGLLEGWWLYEDPAVRIPGCPGLHPDSWKAALESEGFESVFF” the “soluble on expression in E. coli” value was “not soluble”.
For “MNLVPPKEEENLIVFNKQLGEDRRIVMSRSNLNELLKALEENELLCTDLYQVNTDGVILTKQRAEKVIGWARNHYLSSCPSPSIKEGRLILPRESIEISVKRLKAQEDISRKPTQNLKRFLFLQNIAKDEFETNFVSAVVAPGEIGVKFDDIGALEHVKKTLNELVILPMRRPELFTRGNLLRPCKGILLFGPPGTGKTLLAKALATEAGANFISITGSTLTSKWFGDAEKLTKALFSFASKLAPVIIFVDEVDSLLGARGGAFEHEATRRMRNEFMAAWDGLRSKDSQRILILGATNRPFDLDDAVIRRLPRRIYVDLPDAENRLKILKIFLTPENLETGFEFDKLAKETEGYSGSDLKNLCIAAAYRPVQELLQEENKDSVTNASPDLRPLSLDDFIQSKAKVSPSVAYDATTMNELRKWNEQYGEGGTRTKSPFGF”, the “soluble on expression in E. coli” value was “soluble”.
For “MEEPKLILTVKNNKNNKCIIEILNRLYLKDLNSKAEEIIKNVILVYTSLTPIMAYGLLISAPPSCLAKIYPVDLVIHSVKEREIIDKITEFLKKNIQFKTFYVDCYDRGIKINCREVEIGIGIGLRGFASVDYKNPEKVIVVNVIKDSTYMSVIKKGQEKVSVISLR”, the “soluble on expression in E. coli” value was “soluble”.
In the case of “MKIGIVGATGYGGTELVRILSHHPHAEECILYSSSGEGNVYSEGYPHLTGLADQQLKPIDMNTIKHEIDIMFLAAPPGVSSELTPKLADAGITVIDLSGDLRIKEPAEYEKWYKRTAAPKAVIQEAVYGLAELNQLQIQQAKLIANPGCFPTAVLLGLAPLAQKKLLDESFVIVDAKTGVSGAGRKASMGTHFSELNDNFKIYKVNEHQHTPEIEQALNEWQPGLGPITFSAHLVPMTRGIMATMYTRLTCDLTADDLHDLYSEFYQDSYFVRVRPKGQYPQTKEVYGSNFCDIAVTLDERTNRVTIVSVIDNLMKGAAGQAVQNFNLMNGWNEETGLTIITPIYP”, the “soluble on expression in E. coli” value is reported as “not soluble”.
In the case of “MSGIKSLELLLQSMSPELMAGDYVFCTVNGALSDYLSLEPIATFREPEGLTLVLEAEKAQQAGLESSALFSLITLTVHSSLEAVGLTAAFATKLAEHGISANVIAGYYHDHIFVQKEKAQQALQALGEFAQA”, the “soluble on expression in E. coli” value is reported as “soluble”.
For “GSDDINQKVAEQLAQKAQSSSLGYDIVESLTVEVGPRLAGSEQDKVAVDWAIAKLQSLGFDRVYKEPVTVPVWRRGIAKASILSPFPQPLVVTALGGSIATPAQGLSATIVRFDTLQDLQNAEAGSLNDKIAFIDAKTERHRDGKGYGQTASGRSRGAVAAAEKGAVGIIIRSIGTDHDRMAHTGMMRYEEGVTAIPAAAISNPDADLINAMLKRDKEVVISLELGSERRGETTSYNVIAEVKGSTKADEIVLIGAHLDSWDEGTGAIDDGAGVAIVTAAAKHILDLPQKPERTIRVVLYAAEELGLLGGKTYAKEHEAELEKHYIAAESDFGAGPIYQIDWRVADTAHSPVINAMKVAEPLGVAAGNNKASGGPDVSMLPALGVPVASLRQDGSDYFDYHHTPNDTLDKINPEALAQNVAVYAQFAWVMANSKVELRPLPPKE”, the “soluble on expression in E. coli” value was “soluble”.
For “SRTLQFTKMATDHSGAGNLMDCWNAGLELKSCTDEIVKFFLSQTGTSEPPVKGGIDKDCCGAIGLVVKDCWSVMFTSLGLTTMEGNNLREYCEFQAEKSELSPSPAPETLALSPVEITYPGLDY”, the “soluble on expression in E. coli” value was “soluble”.
In the case of “MSSDRSGAAAKASAGQCSSDRPLAVAADPKQYSMALCPDTPSYSLCGRLKSEWDKQSAAASPGPAAYDVPGYFDTLDPQQQQRHLWSGPVPGVHLGIRTVLPESREKAGVPGPGAYQLVRFGDELPRAREPLITRSSRRGRGAAADTPGPGAYDDPTSIAYRADQVRRKRLFTQCSTFGGRWCRREFHTAGPGPAAYNTLVATKLLEKNQRHAPRLVRRQPPLDRQSVAEAAAARMKVSGPPNPQAFPTLPSDFDFDFRKGKTIGGKPHEPLARTAPSHLTQAADDKPSGSRAFWESPPPPGGRFAATPFDPQSHSLAAEKAGTNAARLAEAGNCKPGPGSYNVEVDPTARRVPASLFGRTLSAKSVSVENGVPGPGHYRVVDDTSGRGTIFYKGDFHPRGCSGQGGSAAESLGVGPGAHYNDDTMYSNSINGDRAHNKGFTMGIRYPARATYQHCAPYDETTNINCVYDDELNWVVRPNQHLPLIRRGKL”, the “soluble on expression in E. coli” value is reported as “not soluble”.
With “MGSDKIHHHHHHMGAVVVKDLRKRIGKKEILKGISFEIEEGEIFGLIGPNGAGKTTTLRIISTLIKPSSGIVTVFGKNVVEEPHEVRKLISYLPEEAGAYRNMQGIEYLRFVAGFYASSSSEIEEMVERATEIAGLGEKIKDRVSTYSKGMVRKLLIARALMVNPRLAILDEPTSGLDVLNAREVRKILKQASQEGLTILVSSHNMLEVEFLCDRIALIHNGTIVETGTVEELKERYKAQNIEEVFEEVVKCSENF” the “soluble on expression in E. coli” value was “soluble”.
With “MAHHHHHHMEYAQKSARLPRSAEEKEQWKRVIVILEHCPLQTIQTDRGFELLSDRHRSYHARHNQDPADWRPDVVHQCLLHLQDSPLNRAGMLEVFLRTKKQVCIAVDPRLRVPRNVRLFEKMMVSLLFKLKVRASTGYLSLLRVVGNPITDHIPAGTRLYRVEKDGDLIDPFTFCASCGYAADVLDAQRTDRKISLARRRLTSSTSGTLEETTAEAGTEEFAKAQRKAAERRQFQPFAFIIGGMSRGDVSVDYARPGEVSSIRLGDRGMSAAAVISTLLHGFEEEWLREDNEAC” the “soluble on expression in E. coli” value was “soluble”.
For “LHLELEEKLAGIAAWEPTAPRLLNPGVSSGKALVASGVAAAHAREVLEDLGLRDVIPLWQVVQPYPLHTAFVERLLADYDEILVLEETTGVMELQLADRHRVKGKRSGFVPEVGELSPELVERLVAAFAGIPAAPSVAPPTGGGRRPTLCPGCPHRASFHAIKRAAPKGIYPSDIGCYTLGLNLGGVDTVLCMGAAVSQAAGFYHAYKLSGQVPDIVATIGDSTFFHAGIPPLIDAVVQDARFVLVILDNATTAMTGNQPTPALGWGAGGVPTATVDMEGLVKACGV”, the “soluble on expression in E. coli” value was “not soluble”.
In the case of “MSLGEAEARVVLNMNTGWAFHRGEVESGGQPGLDDSGWIAAIIPHIMQLEKKHCGGDIIYDGVGWYRRTFRVPSQYKDKQIKISFEGVMNACEVYLNGQKISAHRGGYVGFVTDITTRINWDRDNLLAVRVSAEYDPLTPPGKPQAGMDFYYYSGIYRDVEMVISDPLHITHALEEEEVAGGGIFVTYPVVGKEKAVTHVKAHVRNEGKRKRKAQLRTQLIDKSGKIVACQLTPFRLSAGEAIHLEQNLEIVHPSLWHPYDPNLYTLQNEIVENGKVVDCHTESIGIRTIAYTRDGGFYINGESLYLRGANRHQAFAHIGDAAANSMQERDVIDLKRGGCNAVRAAHYPQDPAFLAACDKYGLLVVECIPGWQYFKNDSTFISRLYEVGKQMIRRDRNHPSVILWETALNESRYPAEIARNLYAIAHIEYPGDQMYTAGDYFGHADRVDCFDVFYKQVSRFPKDGDVMSNYPEDQIAVKPLFCREWGDGVGEKPRVSLMENEEEQLKQCRGRFLQLNGHGYFDWCMLDANPRMGGHFLWSYNDYARGAEQETMFCGIVDINRYPKFSYYMMQSMRDKEISQEGHHHHHH”, the “soluble on expression in E. coli” value is reported as “soluble”.
In the case of “MAHHHHHHMYRNLFDKLKDGPLKISILGSGNWASAISKVVGTNAKNNYLFENEVRMWIRDEFVNGERMVDIINNKHENTKYLKGVPLPHNIVAHSDLASVINDADLLIFIVPCQYLESVLASIKESESIKIASHAKAISLTKGFIVKKNQMKLCSNYISDFLNIPCSALSGANIAMICGALKNIITLACGFCDGLNLPTNSKSAIIRNGINEMILFGKGTVTLKYVYHMIKEKNMTNEFPLFTVLHKISFENEDPSSLLKTFMNNKINQLNL”, the “soluble on expression in E. coli” value is reported as “not soluble”.
With “MSLKHLKGNKNTFQKRMYCKKTEIDLSKSGTGLFPGAFYMNRHVKRVILPDYADTVPANLFKGCINLKEVTLPIDPNIGEAAFEGCISLTDIHIPLCIGSIATNAFRGCRENIRFYADSPAVNPKTLKQHIEKELGHSIELYNASGNLVESTEGHHHHHH” the “soluble on expression in E. coli” value was “soluble”.
For “MAKDGGVSCLRRSEMIGIGIGELESPPLDSDQVHVLAVDDSLVDRIVIERLLRITSCKVTAVDSGWRALEFLGLDDDKAAVEFDRLKVDLIITDYCMPGMTGYELLKKIKESTSFKEVPVVIMSSENVMTRIDRCLEEGAEDFLLKPVKLADVKRLRSYLTRDVKVAAEGNKRKLTTPPPPPPLSATSSMESSDSTVESPLSMVDDEDSLTMSPESATSLVDSPMRSPGLA”, the “soluble on expression in E. coli” value was “not soluble”.
For “MGSDKIHHHHHHMLTVSDVSLRFSDRKLFDEVNINFTAGNTYGLIGANGAGKSTFLKILAGDIEPTTGHIALGPDERLSVLRQNHFDYEDERVIDVVIMGNETLYSIMKEKDAIYMKEDFSDEDGVRAAELEGEFAELGGWEAESEASQLLQNLNISEELHYQNMSELANGDKVKVLLAKALFGKPDVLLLDEPTNGLDIQSITWLEDFLIDFENTVIVVSHDRHFLNKVCTHMADLDFGKIKLFVGNYDFWKESSELAARLQADRNAKAEEKIKQLQEFVARFSANASKSKQATSRKKMLDKIELEEIVPSSRKYPFVNFKAEREMGNDLLTVENLSVTIDGEKILDNISFILRPGDKTALIGQNDIQTTALIRALMGDIEYEGTIKWGVTTSRSYLPKDNSRDFASGESILEWLRQFASKEEDDNTFLRGFLGRMLFSGDEVNKSVNVLSGGEKVRVMLSKLMLLKSNVLVLDDPTNHLDLESISSLNDGLKDFKESIIFASHDHEFIQTLANHIIVLSKNGVIDRIDETYDEFLENTEVQAKVAQLWK”, the “soluble on expression in E. coli” value was “not soluble”.
For “MTIIFPSPIFGPVHSRRLGVSLGINLLPEDGKVCSFDCIYCECGFNADHRPKKHLPTREEVRIALEEKLKDMQKNGPAPDVLTFAGNGEPTAHPHFPEIIEDTLALRDHYFPNAKVSVLSNSTFIDRPAVFDALNKIDNNILKLDTVNEEYIHLLDRPNGKYSVRKIIEKMKEFKGNCIVQTMFLKGSYLGKDMNNTSDEFVLPWLEAVKEIAPSQVMIYTIDRETPDHDLQKATHEELDRIVELIKRTGIPATASY”, the “soluble on expression in E. coli” value was “not soluble”.
For “RMMEGAIAIADLTVGDVMVPRSQMVSLPVESDLQTITKQMVESGHSRFPVHGENKDEVLGILLAKDLLRGVSANHTITNVHELLRPVGMIPESKKLNVLLKEFRLSHNHMAIVVDEYGGVAGLVTIEDILEQIVGDID”, the “soluble on expression in E. coli” value was “soluble”.
For “STTALCRMNMILHNSATADIAKGGSSTLSNPLFTTENGMLKTFDYVVANPPFS”, the “soluble on expression in E. coli” value was “not soluble”.
In the case of “MKNDRTLQAIGRQLKAMGCERFDIGVRDATTGQMMNREWSAAEVLQNTPWLKRMNAQGNDVYIRPAEQERHGLVLVDDLSEFDLDDMKAEGREPALVVETSPKNYQAWVKVADAAGGELRGQIARTLASEYDADPASADSRHYGRLAGFTNRKDKHTTRAGYQPWVLLRESKGKTATAGPALVQQAGQQIEQAQRQQEKARRLASLELPERQLSRHRRTALDEYRSEMAGLVKRFGDDLSKCDFIAAQKLASRGRSAEEIGKAMAEASPALAERKPGHEADYIERTVSKVMGLPSVQLARAELARAPAPRQRGMDRGGPDFSM”, the “soluble on expression in E. coli” value is reported as “soluble”.
With “MEMDKAVTGVALDLDHAQIGLIGIPDQPGIAAKVFQALAERGIAVDMIIQGVPGHDPSRQQMAFTVKKDFAQEALEALEPVLAEIGGEAILRPDIAKVSIVGVGLASTPEVPAKMFQAVASTGANIEMIATSEVRISVIIPAEYAEAALRAVHQAFELDKAHHHHHH” the “soluble on expression in E. coli” value was “soluble”.
